This note sets out measurements from paper PMC5435084 (Molecular Biology and Evolution, 2017).

Sequences and labels used below:
B3: SRGAP2A F-BARx-RhoGAP-SH3 (residues 1-799) (domain or fragment)
chain: not shown

Data set [1] deals with the molecule itself. The experiment in a line: SEC.
Data set [2] deals with B3. The experiment in a line: SEC-MALS.
In data set [3] the target is SRGAP2A RhoGAP-SH3 domains (isolated) (human, UniProt O75044 485-1071). The experiment in a line: MST.
Data set [4] concerns the molecule itself. The experiment in a line: SEC. This is another data set of the same source.

Like-named read-outs stand apart in the source and are kept apart here.

B1: SRGAP2C F-BAR portion (F-BARC, SRGAP2C residues 1-355) (domain or fragment, human, UniProt P0DJJ0 1-355, looked up)
chain: MTSPAKFKKDKEIIAEYDTQVKEIRAQLTEQMKCLDQQCELRVQLLQDLQDFFRKKAEIEMDYSRNLEKLAEHFLAKTRSTKDQQFKKDQNVLSPVNCWNLLLNQVKWESRDHTTLSDIYLNNIIPRFVQVSEDSGRLFKKSKEVGQQLQDDLMKVLNELYSVMKTYHMYNADSISAQSKLKEAEKQEEKQIGKSVKQEDRQTPCSPDSTANVRIEEKHVRRSSVKKIEKMKEKHQAKYTENKLKAIKAQNEYLLALEATNASVFKYYIHDLSDLIDQCCDLGYHASLNRALRTFLSAELNLEQSKHEGLDAIENAVENLDATSDKQRLMEMYNNVFCPPMKFEFQPHMGDMASQ
Take B1: in “SEC [1]”, the “stoichiometry N” value came to 2. The binding result in data set [2] is on record as “binds”.

B2: SRGAP2A F-BAR domain (F-BARA, residues 1-355) (domain or fragment, human, UniProt O75044 1-355, looked up)
chain: MTSPAKFKKDKEIIAEYDTQVKEIRAQLTEQMKCLDQQCELRVQLLQDLQDFFRKKAEIEMDYSRNLEKLAERFLAKTRSTKDQQFKKDQNVLSPVNCWNLLLNQVKRESRDHTTLSDIYLNNIIPRFVQVSEDSGRLFKKSKEVGQQLQDDLMKVLNELYSVMKTYHMYNADSISAQSKLKEAEKQEEKQIGKSVKQEDRQTPRSPDSTANVRIEEKHVRRSSVKKIEKMKEKRQAKYTENKLKAIKARNEYLLALEATNASVFKYYIHDLSDLIDQCCDLGYHASLNRALRTFLSAELNLEQSKHEGLDAIENAVENLDATSDKQRLMEMYNNVFCPPMKFEFQPHMGDMASQ
modifications: fluorescently labeled (in the MST only)
With B2, the “stoichiometry N” value in the data set “SEC [1]” was determined as 2. The molecule further displayed a Kd in data set [3] of 3 µM.

On to B3, for which the “stoichiometry N” value in the data set “SEC [4]” stood at 2.

B4: SRGAP2A F-BARx (extended F-BAR, residues 1-484) (domain or fragment, human, UniProt O75044 1-484, looked up)
chain: MTSPAKFKKDKEIIAEYDTQVKEIRAQLTEQMKCLDQQCELRVQLLQDLQDFFRKKAEIEMDYSRNLEKLAERFLAKTRSTKDQQFKKDQNVLSPVNCWNLLLNQVKRESRDHTTLSDIYLNNIIPRFVQVSEDSGRLFKKSKEVGQQLQDDLMKVLNELYSVMKTYHMYNADSISAQSKLKEAEKQEEKQIGKSVKQEDRQTPRSPDSTANVRIEEKHVRRSSVKKIEKMKEKRQAKYTENKLKAIKARNEYLLALEATNASVFKYYIHDLSDLIDQCCDLGYHASLNRALRTFLSAELNLEQSKHEGLDAIENAVENLDATSDKQRLMEMYNNVFCPPMKFEFQPHMGDMASQLCAQQPVQSELVQRCQQLQSRLSTLKIENEEVKKTMEATLQTIQDIVTVEDFDVSDCFQYSNSMESVKSTVSETFMSKPSIAKRRANQQETEQFYFTKMKEYLEGRNLITKLQAKHDLLQKTLGESQRT
modifications: fluorescently labeled (in the MST only)
As for B4, the Kd in data set [3] is 3.5 µM.
